In patent publication US20240287172A1 (SCIRHOM, published 2024):
Positions count from the first letter of the chain named.

B1: antibody 3 (antibody, V domains shown)
VH: QVTLKESGPGILQPSQTLSLTCSFSGFSLTTFAMGIGWVRQPSGKGLEWLAHIWWDGEKYNNPVLKSRLTISKDTSKNQVFLRIANVDTPDTATYYCARISSIYYIIDNWGQGTSVTVSS
VL: DIVLTQSPATLSVTPGHSVSLSCRASQSISNNLHWYQKKSHESPRLLIKYVSQSISGIPSRFSGSGSGTDFTLSINSVETEDFGMYFCQQSYNWPLTFGAGTKLELK
notes: mouse IgG, kappa light chain; also called clone #3; purified antibody 3
B2: antibody 50 (antibody, V domains shown)
VH: QVQLQQSGAELVRPGASVKVSCKASGYAFSNYLIEWVKQRPGQGLEWIGVINPGSGFTKYNEKFKGKATLTADKSSSTAYMQLSSLTSEDSAVYFCARGLYRAMDYWGQGTSVTVSS
VL: DIQMTQSPASQSASLGESVTITCLASQTIGTWLAWYQQKPGKSPQLLIYAAASLADGVPSRFSGGGSGTKFSFKISSLQAEDFVNYYCQQIYSTPYTFGGGTKLEIK
notes: mouse IgG, kappa light chain; also called clone #50; purified antibody 50

Legend:
[1] = biological target: T1, hiR2-FL-S583A-T7 (human, UniProt Q6PJF5 1-856); test: FACS on MEF-DKO cells expressing the variant, 3 µg/ml antibody
T1 sequence: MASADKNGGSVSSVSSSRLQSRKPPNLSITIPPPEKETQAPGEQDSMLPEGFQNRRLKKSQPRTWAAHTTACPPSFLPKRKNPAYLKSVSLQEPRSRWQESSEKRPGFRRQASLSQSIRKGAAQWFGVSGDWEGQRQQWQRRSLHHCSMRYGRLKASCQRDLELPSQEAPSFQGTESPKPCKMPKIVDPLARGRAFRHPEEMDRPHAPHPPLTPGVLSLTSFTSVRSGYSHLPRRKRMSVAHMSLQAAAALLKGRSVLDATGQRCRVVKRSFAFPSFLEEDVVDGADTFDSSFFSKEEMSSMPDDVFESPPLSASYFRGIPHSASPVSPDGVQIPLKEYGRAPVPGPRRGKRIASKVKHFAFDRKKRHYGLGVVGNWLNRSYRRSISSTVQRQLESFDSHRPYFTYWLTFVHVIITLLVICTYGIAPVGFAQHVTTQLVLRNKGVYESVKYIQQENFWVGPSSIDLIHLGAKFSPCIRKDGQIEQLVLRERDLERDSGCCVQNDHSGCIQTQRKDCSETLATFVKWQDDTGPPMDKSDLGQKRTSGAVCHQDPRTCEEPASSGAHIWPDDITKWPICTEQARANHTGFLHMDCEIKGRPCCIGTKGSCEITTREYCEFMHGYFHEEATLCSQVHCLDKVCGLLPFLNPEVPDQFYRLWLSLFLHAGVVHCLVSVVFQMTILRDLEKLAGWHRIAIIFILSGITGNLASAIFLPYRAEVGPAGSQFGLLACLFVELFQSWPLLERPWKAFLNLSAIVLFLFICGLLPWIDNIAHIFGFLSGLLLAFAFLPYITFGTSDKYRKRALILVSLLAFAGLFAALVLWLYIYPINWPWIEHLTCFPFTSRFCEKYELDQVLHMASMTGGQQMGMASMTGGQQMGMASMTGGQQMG
Outline: (§1)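 Flow cytometry read-out of binding to variant-expressing cells after two-step staining on ice: 1 h with antibody at 3 μg/ml, then 1 h with PE-labelled goat anti-mouse IgG F(ab′)2 diluted 1:100. Controls received FACS buffer without primary antibody.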

[2] = biological target: T2, hiR2-FL-C593A-T7 (human, UniProt Q6PJF5 1-856); test: as above
T2 construct: reduced surface expression reported
T2 sequence: T1 sequence with A583S, C593A
Outline: as §1

Row | Binder | loss of binding vs wild type [1] | loss of binding vs wild type [2]
1 | B1 | ≥ 30% | 
2 | B2 |  | ≥ 30%
